Results published in the Human Domainome abundance scans (Beltran et al. 2025).
± gives the uncertainty stated by the source.

B1: Peroxisome proliferator-activated receptor delta, residues 71 to 145; numbered along this chain, Q03181 (parent)
chain: NMECRVCGDKASGFHYGVHACEGCKGFFRRTIRMKLEYEKCERSCKIQKKNRNKCQYCRFQKCLALGMSHNAIRF

Variants of: B1
Test: abundance fitness (aPCA) (normalised: wild type 0, dead -1); higher = more abundant; growth selection in yeast, the domain comes from the species named
Details: Homo sapiens

Variant | abundance fitness
NMECRVCGDKASGFHYGVHACEGCKGFFRRTIRMKLEYEKCSRSCKIQKKNRNKCQYCRFQKCLALGMSHNAIRF [E42S] | -0.117 ± 0.04
NMECRVCGDKASGFHYGVHACEGCKGFFRRTIRMKLEYEKCDRSCKIQKKNRNKCQYCRFQKCLALGMSHNAIRF [E42D] | -0.16 ± 0.073
NMECRVCGDKASGFHYGVHACEGCKGFFRRTIRMKLEYEKCQRSCKIQKKNRNKCQYCRFQKCLALGMSHNAIRF [E42Q] | -0.104 ± 0.049
NMECRVCGDKASGFHYGVHACEGCKGFFRRTIRMKLEYEKCCRSCKIQKKNRNKCQYCRFQKCLALGMSHNAIRF [E42C] | -0.394 ± 0.077
NMECRVCGDKASGFHYGVHACEGCKGFFRRTIRMKLEYEKCIRSCKIQKKNRNKCQYCRFQKCLALGMSHNAIRF [E42I] | -0.304 ± 0.089
NMECRVCGDKASGFHYGVHACEGCKGFFRRTIRMKLEYEKCHRSCKIQKKNRNKCQYCRFQKCLALGMSHNAIRF [E42H] | -0.195 ± 0.08
NMECRVCGDKASGFHYGVHACEGCKGFFRRTIRMKLEYEKCTRSCKIQKKNRNKCQYCRFQKCLALGMSHNAIRF [E42T] | -0.117 ± 0.042
NMECRVCGDKASGFHYGVHACEGCKGFFRRTIRMKLEYEKCLRSCKIQKKNRNKCQYCRFQKCLALGMSHNAIRF [E42L] | -0.195 ± 0.04
NMECRVCGDKASGFHYGVHACEGCKGFFRRTIRMKLEYEKCMRSCKIQKKNRNKCQYCRFQKCLALGMSHNAIRF [E42M] | -0.051 ± 0.054
NMECRVCGDKASGFHYGVHACEGCKGFFRRTIRMKLEYEKCRRSCKIQKKNRNKCQYCRFQKCLALGMSHNAIRF [E42R] | -0.367 ± 0.038
NMECRVCGDKASGFHYGVHACEGCKGFFRRTIRMKLEYEKCYRSCKIQKKNRNKCQYCRFQKCLALGMSHNAIRF [E42Y] | -0.093 ± 0.089
NMECRVCGDKASGFHYGVHACEGCKGFFRRTIRMKLEYEKCARSCKIQKKNRNKCQYCRFQKCLALGMSHNAIRF [E42A] | -0.179 ± 0.037
NMECRVCGDKASGFHYGVHACEGCKGFFRRTIRMKLEYEKCGRSCKIQKKNRNKCQYCRFQKCLALGMSHNAIRF [E42G] | -0.135 ± 0.028
NMECRVCGDKASGFHYGVHACEGCKGFFRRTIRMKLEYEKCFRSCKIQKKNRNKCQYCRFQKCLALGMSHNAIRF [E42F] | -0.139 ± 0.089
NMECRVCGDKASGFHYGVHACEGCKGFFRRTIRMKLEYEKCNRSCKIQKKNRNKCQYCRFQKCLALGMSHNAIRF [E42N] | -0.335 ± 0.1
NMECRVCGDKASGFHYGVHACEGCKGFFRRTIRMKLEYEKCPRSCKIQKKNRNKCQYCRFQKCLALGMSHNAIRF [E42P] | -0.25 ± 0.056
NMECRVCGDKASGFHYGVHACEGCKGFFRRTIRMKLEYEKCWRSCKIQKKNRNKCQYCRFQKCLALGMSHNAIRF [E42W] | -0.295 ± 0.049
NMECRVCGDKASGFHYGVHACEGCKGFFRRTIRMKLEYEKCVRSCKIQKKNRNKCQYCRFQKCLALGMSHNAIRF [E42V] | -0.074 ± 0.035
NMECRVCGDKASGFHYGVHACEGCKGFFRRTIRMKLEYEKCKRSCKIQKKNRNKCQYCRFQKCLALGMSHNAIRF [E42K] | -0.209 ± 0.063
NMECRVCGDKASGFHYGVHACEGCKGFFRRTIRMKLEYEKCERICKIQKKNRNKCQYCRFQKCLALGMSHNAIRF [S44I] | -0.212 ± 0.091
NMECRVCGDKASGFHYGVHACEGCKGFFRRTIRMKLEYEKCERQCKIQKKNRNKCQYCRFQKCLALGMSHNAIRF [S44Q] | 0.069 ± 0.049
NMECRVCGDKASGFHYGVHACEGCKGFFRRTIRMKLEYEKCERFCKIQKKNRNKCQYCRFQKCLALGMSHNAIRF [S44F] | -0.005 ± 0.074
NMECRVCGDKASGFHYGVHACEGCKGFFRRTIRMKLEYEKCERGCKIQKKNRNKCQYCRFQKCLALGMSHNAIRF [S44G] | 0.055 ± 0.03
NMECRVCGDKASGFHYGVHACEGCKGFFRRTIRMKLEYEKCERDCKIQKKNRNKCQYCRFQKCLALGMSHNAIRF [S44D] | 0.055 ± 0.056
NMECRVCGDKASGFHYGVHACEGCKGFFRRTIRMKLEYEKCERTCKIQKKNRNKCQYCRFQKCLALGMSHNAIRF [S44T] | -0.049 ± 0.05

Variant | abundance fitness
NMECRVCGDKASGFHYGVHACEGCKGFFRRTIRMKLEYEKCERMCKIQKKNRNKCQYCRFQKCLALGMSHNAIRF [S44M] | 0.028 ± 0.047
NMECRVCGDKASGFHYGVHACEGCKGFFRRTIRMKLEYEKCERVCKIQKKNRNKCQYCRFQKCLALGMSHNAIRF [S44V] | -0.086 ± 0.039
NMECRVCGDKASGFHYGVHACEGCKGFFRRTIRMKLEYEKCERWCKIQKKNRNKCQYCRFQKCLALGMSHNAIRF [S44W] | -0.314 ± 0.058
NMECRVCGDKASGFHYGVHACEGCKGFFRRTIRMKLEYEKCERCCKIQKKNRNKCQYCRFQKCLALGMSHNAIRF [S44C] | -0.164 ± 0.062
NMECRVCGDKASGFHYGVHACEGCKGFFRRTIRMKLEYEKCERKCKIQKKNRNKCQYCRFQKCLALGMSHNAIRF [S44K] | 0.12 ± 0.051
NMECRVCGDKASGFHYGVHACEGCKGFFRRTIRMKLEYEKCERACKIQKKNRNKCQYCRFQKCLALGMSHNAIRF [S44A] | -0.045 ± 0.039
NMECRVCGDKASGFHYGVHACEGCKGFFRRTIRMKLEYEKCERLCKIQKKNRNKCQYCRFQKCLALGMSHNAIRF [S44L] | -0.038 ± 0.037
NMECRVCGDKASGFHYGVHACEGCKGFFRRTIRMKLEYEKCERRCKIQKKNRNKCQYCRFQKCLALGMSHNAIRF [S44R] | -0.05 ± 0.032
NMECRVCGDKASGFHYGVHACEGCKGFFRRTIRMKLEYEKCERPCKIQKKNRNKCQYCRFQKCLALGMSHNAIRF [S44P] | -0.134 ± 0.058
NMECRVCGDKASGFHYGVHACEGCKGFFRRTIRMKLEYEKCERECKIQKKNRNKCQYCRFQKCLALGMSHNAIRF [S44E] | 0.139 ± 0.04
NMECRVCGDKASGFHYGVHACEGCKGFFRRTIRMKLEYEKCERHCKIQKKNRNKCQYCRFQKCLALGMSHNAIRF [S44H] | 0.073 ± 0.065
NMECRVCGDKASGFHYGVHACEGCKGFFRRTIRMKLEYEKCEFSCKIQKKNRNKCQYCRFQKCLALGMSHNAIRF [R43F] | 0.082 ± 0.1
NMECRVCGDKASGFHYGVHACEGCKGFFRRTIRMKLEYEKCEISCKIQKKNRNKCQYCRFQKCLALGMSHNAIRF [R43I] | -0.349 ± 0.13
NMECRVCGDKASGFHYGVHACEGCKGFFRRTIRMKLEYEKCEDSCKIQKKNRNKCQYCRFQKCLALGMSHNAIRF [R43D] | -0.149 ± 0.075
NMECRVCGDKASGFHYGVHACEGCKGFFRRTIRMKLEYEKCEKSCKIQKKNRNKCQYCRFQKCLALGMSHNAIRF [R43K] | 0.078 ± 0.051
NMECRVCGDKASGFHYGVHACEGCKGFFRRTIRMKLEYEKCESSCKIQKKNRNKCQYCRFQKCLALGMSHNAIRF [R43S] | -0.045 ± 0.043
NMECRVCGDKASGFHYGVHACEGCKGFFRRTIRMKLEYEKCEGSCKIQKKNRNKCQYCRFQKCLALGMSHNAIRF [R43G] | -0.085 ± 0.033
NMECRVCGDKASGFHYGVHACEGCKGFFRRTIRMKLEYEKCEVSCKIQKKNRNKCQYCRFQKCLALGMSHNAIRF [R43V] | -0.158 ± 0.049
NMECRVCGDKASGFHYGVHACEGCKGFFRRTIRMKLEYEKCEPSCKIQKKNRNKCQYCRFQKCLALGMSHNAIRF [R43P] | -0.168 ± 0.072
NMECRVCGDKASGFHYGVHACEGCKGFFRRTIRMKLEYEKCECSCKIQKKNRNKCQYCRFQKCLALGMSHNAIRF [R43C] | -0.138 ± 0.076
NMECRVCGDKASGFHYGVHACEGCKGFFRRTIRMKLEYEKCEASCKIQKKNRNKCQYCRFQKCLALGMSHNAIRF [R43A] | -0.064 ± 0.049
NMECRVCGDKASGFHYGVHACEGCKGFFRRTIRMKLEYEKCEWSCKIQKKNRNKCQYCRFQKCLALGMSHNAIRF [R43W] | -0.252 ± 0.049
NMECRVCGDKASGFHYGVHACEGCKGFFRRTIRMKLEYEKCENSCKIQKKNRNKCQYCRFQKCLALGMSHNAIRF [R43N] | 0.223 ± 0.069
NMECRVCGDKASGFHYGVHACEGCKGFFRRTIRMKLEYEKCEMSCKIQKKNRNKCQYCRFQKCLALGMSHNAIRF [R43M] | -0.043 ± 0.052
NMECRVCGDKASGFHYGVHACEGCKGFFRRTIRMKLEYEKCETSCKIQKKNRNKCQYCRFQKCLALGMSHNAIRF [R43T] | -0.161 ± 0.062

Variant | abundance fitness
NMECRVCGDKASGFHYGVHACEGCKGFFRRTIRMKLEYEKCEQSCKIQKKNRNKCQYCRFQKCLALGMSHNAIRF [R43Q] | 0.111 ± 0.051
NMECRVCGDKASGFHYGVHACEGCKGFFRRTIRMKLEYEKCEESCKIQKKNRNKCQYCRFQKCLALGMSHNAIRF [R43E] | 0.013 ± 0.05
NMECRVCGDKASGFHYGVHACEGCKGFFRRTIRMKLEYEKCEHSCKIQKKNRNKCQYCRFQKCLALGMSHNAIRF [R43H] | -0.07 ± 0.086
NMECRVCGDKASGFHYGVHACEGCKGFFRRTIRMKLEYEKVERSCKIQKKNRNKCQYCRFQKCLALGMSHNAIRF [C41V] | -0.645 ± 0.13
NMECRVCGDKASGFHYGVHACEGCKGFFRRTIRMKLEYEKEERSCKIQKKNRNKCQYCRFQKCLALGMSHNAIRF [C41E] | -0.729 ± 0.19
NMECRVCGDKASGFHYGVHACEGCKGFFRRTIRMKLEYEKFERSCKIQKKNRNKCQYCRFQKCLALGMSHNAIRF [C41F] | -0.398 ± 0.3
NMECRVCGDKASGFHYGVHACEGCKGFFRRTIRMKLEYEKGERSCKIQKKNRNKCQYCRFQKCLALGMSHNAIRF [C41G] | -0.684 ± 0.089
NMECRVCGDKASGFHYGVHACEGCKGFFRRTIRMKLEYEKRERSCKIQKKNRNKCQYCRFQKCLALGMSHNAIRF [C41R] | -0.694 ± 0.099
NMECRVCGDKASGFHYGVHACEGCKGFFRRTIRMKLEYEKAERSCKIQKKNRNKCQYCRFQKCLALGMSHNAIRF [C41A] | -1 ± 0.27
NMECRVCGDKASGFHYGVHACEGCKGFFRRTIRMKLEYEKSERSCKIQKKNRNKCQYCRFQKCLALGMSHNAIRF [C41S] | -0.945 ± 0.23
NMECRVCGDKASGFHYGVHACEGCKGFFRRTIRMKLEYEKHERSCKIQKKNRNKCQYCRFQKCLALGMSHNAIRF [C41H] | -0.361 ± 0.24
NMECRVCGDKASGFHYGVHACEGCKGFFRRTIRMKLEYEKLERSCKIQKKNRNKCQYCRFQKCLALGMSHNAIRF [C41L] | -1.27 ± 0.34
NMECRVCGDKASGFHYGVHACEGCKGFFRRTIRMKLEYEKPERSCKIQKKNRNKCQYCRFQKCLALGMSHNAIRF [C41P] | -0.093 ± 0.16
NMECRVCGDKASGFHYGVHACEGCKGFFRRTIRMKLEYEKWERSCKIQKKNRNKCQYCRFQKCLALGMSHNAIRF [C41W] | -0.774 ± 0.22
NMECRVCGDKASGFHYGVHACEGCKGFFRRTIRMKLEYEKYERSCKIQKKNRNKCQYCRFQKCLALGMSHNAIRF [C41Y] | -0.816 ± 0.34
NMECRVCGDKASGFHYGVHACEGCKGFFRRTIRMKLEYESCERSCKIQKKNRNKCQYCRFQKCLALGMSHNAIRF [K40S] | -0.255 ± 0.051
NMECRVCGDKASGFHYGVHACEGCKGFFRRTIRMKLEYEYCERSCKIQKKNRNKCQYCRFQKCLALGMSHNAIRF [K40Y] | -0.088 ± 0.081
NMECRVCGDKASGFHYGVHACEGCKGFFRRTIRMKLEYERCERSCKIQKKNRNKCQYCRFQKCLALGMSHNAIRF [K40R] | -0.095 ± 0.033
NMECRVCGDKASGFHYGVHACEGCKGFFRRTIRMKLEYEVCERSCKIQKKNRNKCQYCRFQKCLALGMSHNAIRF [K40V] | 0.026 ± 0.036
NMECRVCGDKASGFHYGVHACEGCKGFFRRTIRMKLEYEPCERSCKIQKKNRNKCQYCRFQKCLALGMSHNAIRF [K40P] | -0.117 ± 0.056
NMECRVCGDKASGFHYGVHACEGCKGFFRRTIRMKLEYEWCERSCKIQKKNRNKCQYCRFQKCLALGMSHNAIRF [K40W] | -0.348 ± 0.058
NMECRVCGDKASGFHYGVHACEGCKGFFRRTIRMKLEYETCERSCKIQKKNRNKCQYCRFQKCLALGMSHNAIRF [K40T] | -0.154 ± 0.048
NMECRVCGDKASGFHYGVHACEGCKGFFRRTIRMKLEYEQCERSCKIQKKNRNKCQYCRFQKCLALGMSHNAIRF [K40Q] | -0.05 ± 0.05
